Publication PMC10675840, “Structure-function analysis of ceTIR-1/hSARM1 explains the lack of Wallerian axonal degeneration in C. elegans” (Cell reports, 2023)
One block for each molecule: values may come before it.

Assays:
ceTIR-1 = molecular target: T1, ceTIR-1 (Caenorhabditis elegans, UniProt Q86DA5); assay: HPLC NAD+ consumption, dose response; format: biochemical
T1 construct: gene tir-1; near-intact ARM-SAM-SAM-TIR, residues 162-872 (HMD...QQR), N-terminal 6xHis + TEV site, HEK293F expression, mostly 9-mer ring, partly dissociated
T1 sequence (Q86DA5 216-926): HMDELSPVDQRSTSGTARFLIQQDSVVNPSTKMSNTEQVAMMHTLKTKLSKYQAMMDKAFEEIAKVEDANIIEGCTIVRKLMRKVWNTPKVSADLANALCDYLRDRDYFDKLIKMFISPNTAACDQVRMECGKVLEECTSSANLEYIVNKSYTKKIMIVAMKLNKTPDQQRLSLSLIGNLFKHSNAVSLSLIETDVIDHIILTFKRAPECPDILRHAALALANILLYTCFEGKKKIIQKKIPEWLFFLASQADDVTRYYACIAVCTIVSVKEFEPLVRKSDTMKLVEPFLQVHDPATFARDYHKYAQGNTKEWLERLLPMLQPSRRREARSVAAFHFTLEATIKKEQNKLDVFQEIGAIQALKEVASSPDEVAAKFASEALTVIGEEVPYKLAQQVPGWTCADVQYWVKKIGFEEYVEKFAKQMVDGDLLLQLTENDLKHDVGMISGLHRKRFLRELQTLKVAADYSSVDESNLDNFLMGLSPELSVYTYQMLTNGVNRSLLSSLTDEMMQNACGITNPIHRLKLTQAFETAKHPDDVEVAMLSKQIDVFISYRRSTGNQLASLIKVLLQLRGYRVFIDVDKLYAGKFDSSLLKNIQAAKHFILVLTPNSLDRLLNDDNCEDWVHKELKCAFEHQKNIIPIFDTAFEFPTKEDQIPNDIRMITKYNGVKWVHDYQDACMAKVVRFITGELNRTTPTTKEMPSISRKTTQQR
From the text: HPLC NAD+ consumption, dose response on ceTIR-1 | Nicotinamide (NAM) inhibits ceTIR-1 NADase activity

[1] = molecular target: the molecule itself; assay: cross-linking; glutaraldehyde cross-linking of ceTIR-1^TIR and ceTIR-1^(TIR L729H)
[2] = molecular target: the molecule itself; assay: cryo-EM structure; purified CHIMERA supplemented with 5 mM NAD+; Titan Krios; 136,346 particles, C8 symmetry imposed
[3] = molecular target: the molecule itself; assay: SEC; gel filtration of Ni-NTA purified hSARM1 and ceTIR-1, fractions read by anti-FLAG WB; Superdex 200 Increase 10/300, 25 mM phosphate pH 8.5, 120 mM NaCl, 2.5% glycerol, 1 mM DTT
[4] = molecular target: T2, hSARM1 ARM and SAM domains (residues 26-562), the human part of CHIMERA (human, UniProt Q6SZW1 26-562); assay: cryo-EM structure; purified CHIMERA supplemented with 5 mM NAD+; Titan Krios; 136,346 particles, C8 symmetry imposed; details: both partners purified
T2 construct: human SARM1 ARM and SAM domains, residues 26-562 (26ERL...DTP562); Stood joined on one chain with m8 (together they are CHIMERA); written apart only for the contact of the human ARM with the C. elegans TIR in the structure; also called human ARM and SAM domains; source: HEK293F, transfected, purified, as part of the CHIMERA chain
T2 sequence (looked up): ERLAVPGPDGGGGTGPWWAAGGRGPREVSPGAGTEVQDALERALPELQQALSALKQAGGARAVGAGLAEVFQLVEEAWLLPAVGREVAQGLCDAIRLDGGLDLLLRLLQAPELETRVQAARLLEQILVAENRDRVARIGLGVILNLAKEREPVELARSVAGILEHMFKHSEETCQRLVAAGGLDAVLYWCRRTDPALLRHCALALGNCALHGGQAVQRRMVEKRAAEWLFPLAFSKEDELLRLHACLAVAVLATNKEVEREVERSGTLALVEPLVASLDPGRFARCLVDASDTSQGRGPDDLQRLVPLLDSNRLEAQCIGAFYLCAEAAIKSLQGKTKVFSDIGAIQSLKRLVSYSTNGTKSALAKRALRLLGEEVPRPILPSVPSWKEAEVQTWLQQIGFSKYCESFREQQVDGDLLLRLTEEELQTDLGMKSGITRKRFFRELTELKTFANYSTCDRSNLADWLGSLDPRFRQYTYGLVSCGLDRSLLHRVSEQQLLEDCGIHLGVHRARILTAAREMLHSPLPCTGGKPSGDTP

[5] = substrate: NC(=O)c1ccc[n+]([C@@H]2O[C@H](COP(=O)(O)OP(=O)(O)OC[C@H]3O[C@@H](n4cnc5c(N)ncnc54)[C@H](O)[C@@H]3O)[C@@H](O)[C@H]2O)c1; assay: HPLC NAD+ consumption, Michaelis-Menten fit; format: biochemical, Caenorhabditis elegans; details: […] min, […] enzyme, pH […], unit appears as mM, a character error for µM (b50 gives about […] for hSARM1 and […] higher for ceTIR-1)

Molecule: NC(=O)c1cccnc1 [NAM]
IC50 (ceTIR-1): 910 µM

B1: ceTIR-1^TIR (residues 703-872) (domain or fragment, C. elegans, UniProt Q86DA5-2 703-872, looked up)
chain: MLSKQIDVFISYRRSTGNQLASLIKVLLQLRGYRVFIDVDKLYAGKFDSSLLKNIQAAKHFILVLTPNSLDRLLNDDNCEDWVHKELKCAFEHQKNIIPIFDTAFEFPTKEDQIPNDIRMITKYNGVKWVHDYQDACMAKVVRFITGELNRTTPTTKEMPSISRKTTQQR
notes: ceTIR-1 TIR domain, residues 703-872 (703MLS...QQR872); Dimeric by glutaraldehyde cross-linking; also called isolated TIR domain of ceTIR-1; source: E. coli T7 Express, purified (HisTrap, TEV, second HisTrap, Superdex SEC); not shown: His tag, N-terminal, cleaved
stoichiometry N [1]: 2

B2: CHIMERA (hSARM1 26-562 fused to ceTIR-1 709-872) (enzyme, human | C. elegans, UniProt Q6SZW1 26-562, looked up)
chain: ERLAVPGPDGGGGTGPWWAAGGRGPREVSPGAGTEVQDALERALPELQQALSALKQAGGARAVGAGLAEVFQLVEEAWLLPAVGREVAQGLCDAIRLDGGLDLLLRLLQAPELETRVQAARLLEQILVAENRDRVARIGLGVILNLAKEREPVELARSVAGILEHMFKHSEETCQRLVAAGGLDAVLYWCRRTDPALLRHCALALGNCALHGGQAVQRRMVEKRAAEWLFPLAFSKEDELLRLHACLAVAVLATNKEVEREVERSGTLALVEPLVASLDPGRFARCLVDASDTSQGRGPDDLQRLVPLLDSNRLEAQCIGAFYLCAEAAIKSLQGKTKVFSDIGAIQSLKRLVSYSTNGTKSALAKRALRLLGEEVPRPILPSVPSWKEAEVQTWLQQIGFSKYCESFREQQVDGDLLLRLTEEELQTDLGMKSGITRKRFFRELTELKTFANYSTCDRSNLADWLGSLDPRFRQYTYGLVSCGLDRSLLHRVSEQQLLEDCGIHLGVHRARILTAAREMLHSPLPCTGGKPSGDTPDVFISYRRSTGNQLASLIKVLLQLRGYRVFIDVDKLYAGKFDSSLLKNIQAAKHFILVLTPNSLDRLLNDDNCEDWVHKELKCAFEHQKNIIPIFDTAFEFPTKEDQIPNDIRMITKYNGVKWVHDYQDACMAKVVRFITGELNRTTPTTKEMPSISRKTTQQR
notes: human SARM1 ARM and SAM domains, residues 26-562 (26ERL...DTP562); ceTIR-1 TIR domain, residues 709-872 (709DVF...QQR872); Octamer by cryo-EM, sample supplemented with 5 mM NAD+; also called hARM-SAM-ceTIR CHIMERA; Chimera construct; source: HEK293F, transfected, purified (Ni-chelate, Superdex 200 Increase SEC)
stoichiometry N [2]: 8

B3: hSARM1 (near-intact, residues 26-724) (enzyme, human, UniProt Q6SZW1 26-724, looked up)
chain: ERLAVPGPDGGGGTGPWWAAGGRGPREVSPGAGTEVQDALERALPELQQALSALKQAGGARAVGAGLAEVFQLVEEAWLLPAVGREVAQGLCDAIRLDGGLDLLLRLLQAPELETRVQAARLLEQILVAENRDRVARIGLGVILNLAKEREPVELARSVAGILEHMFKHSEETCQRLVAAGGLDAVLYWCRRTDPALLRHCALALGNCALHGGQAVQRRMVEKRAAEWLFPLAFSKEDELLRLHACLAVAVLATNKEVEREVERSGTLALVEPLVASLDPGRFARCLVDASDTSQGRGPDDLQRLVPLLDSNRLEAQCIGAFYLCAEAAIKSLQGKTKVFSDIGAIQSLKRLVSYSTNGTKSALAKRALRLLGEEVPRPILPSVPSWKEAEVQTWLQQIGFSKYCESFREQQVDGDLLLRLTEEELQTDLGMKSGITRKRFFRELTELKTFANYSTCDRSNLADWLGSLDPRFRQYTYGLVSCGLDRSLLHRVSEQQLLEDCGIHLGVHRARILTAAREMLHSPLPCTGGKPSGDTPDVFISYRRNSGSQLASLLKVHLQLHGFSVFIDVEKLEAGKFEDKLIQSVMGARNFVLVLSPGALDKCMQDHDCKDWVHKEIVTALSCGKNIVPIIDGFEWPEPQVLPEDMQAVLTFNGIKWSHEYQEATIEKIIRFLQGRSSRDSSAGSDTSLEGAAPMGPT
notes: human SARM1 (sterile alpha and TIR motif containing 1), residues 26-724 (26ERL...GPT724); A TEV site follows the His tag; no cleavage is described; also called human SARM1; source: HEK293F, transfected, purified (Ni-chelate, Superdex 200 Increase SEC)
binding result [3]: binds

binding result [4]: binds
B4: ceTIR-1 TIR domain (residues 709-872), the C. elegans part of CHIMERA (domain or fragment, UniProt Q86DA5-2 709-872, looked up)
chain: DVFISYRRSTGNQLASLIKVLLQLRGYRVFIDVDKLYAGKFDSSLLKNIQAAKHFILVLTPNSLDRLLNDDNCEDWVHKELKCAFEHQKNIIPIFDTAFEFPTKEDQIPNDIRMITKYNGVKWVHDYQDACMAKVVRFITGELNRTTPTTKEMPSISRKTTQQR
notes: ceTIR-1 TIR domain, residues 709-872 (709DVF...QQR872); Stood joined on one chain with m7 (together they are CHIMERA); also called C. elegans TIR; source: HEK293F, transfected, purified, as part of the CHIMERA chain

B5: ceTIR-1 (Caenorhabditis elegans) (protein)
chain: HMDELSPVDQRSTSGTARFLIQQDSVVNPSTKMSNTEQVAMMHTLKTKLSKYQAMMDKAFEEIAKVEDANIIEGCTIVRKLMRKVWNTPKVSADLANALCDYLRDRDYFDKLIKMFISPNTAACDQVRMECGKVLEECTSSANLEYIVNKSYTKKIMIVAMKLNKTPDQQRLSLSLIGNLFKHSNAVSLSLIETDVIDHIILTFKRAPECPDILRHAALALANILLYTCFEGKKKIIQKKIPEWLFFLASQADDVTRYYACIAVCTIVSVKEFEPLVRKSDTMKLVEPFLQVHDPATFARDYHKYAQGNTKEWLERLLPMLQPSRRREARSVAAFHFTLEATIKKEQNKLDVFQEIGAIQALKEVASSPDEVAAKFASEALTVIGEEVPYKLAQQVPGWTCADVQYWVKKIGFEEYVEKFAKQMVDGDLLLQLTENDLKHDVGMISGLHRKRFLRELQTLKVAADYSSVDESNLDNFLMGLSPELSVYTYQMLTNGVNRSLLSSLTDEMMQNACGITNPIHRLKLTQAFETAKHPDDVEVAMLSKQIDVFISYRRSTGNQLASLIKVLLQLRGYRVFIDVDKLYAGKFDSSLLKNIQAAKHFILVLTPNSLDRLLNDDNCEDWVHKELKCAFEHQKNIIPIFDTAFEFPTKEDQIPNDIRMITKYNGVKWVHDYQDACMAKVVRFITGELNRTTPTTKEMPSISRKTTQQR
notes: near-intact ARM-SAM-SAM-TIR, residues 162-872 (HMD...QQR), N-terminal 6xHis + TEV site, HEK293F expression, mostly 9-mer ring, partly dissociated
Km [5]: 0.25 mM
